Target: Chlamydia psittaci BioE (Chlamydia psittaci)
Test: SPR

B1: stearoyl-ACP (E. coli acyl carrier protein carrying a C18 acyl group) (natural protein)
chain: STIEERVKKIIGEQLGVKQEEVTNNASFVEDLGADSLDTVELVMALEEEFDTEIPDEEAEKITTVQAAIDYINGHQA
modifications: holo-ACP carrying a stearoyl (C18) group, made with VhAasS
B1 showed a koff of 0.00316 s⁻¹.
